Results taken from article PMC4705663.
Values belong to the substance of their own block, whether it stands above or below them.

Assays:
BRPF1 PZP domain [1] = assay: HI-FI FRET; details: 200 mM NaCl, HI-FI FRET: 25 mM Tris pH 7.5, 200 mM NaCl, 0.01% NP40 and CHAPS, EMSA: 25 mM Tris-HCl pH 7.5, 150 mM NaCl, 5 mM DTT, +/-10% glycerol, RT 30 min, NMR: 25 mM …
[2] = biological target: histone H3 tail H3 tail (Homo sapiens) (UniProt P68431); details: cited from earlier work
[3] = biological target: Oregon Green 488-labeled BRPF1 PZP domain (UniProt P55201); assay: FRET or BRET; HIFI-FRET titration; Atto647N-labeled mononucleosomes titrated against three concentrations of Oregon Green labeled PZP; 25 mM Tris 7.5, 200 mM NaCl, 0.01% NP40 and CHAPS; quadratic fit; apparent Kd
[4] = biological target: Atto647N-labeled NCP165 (Xenopus octamer labeled at H4E63C, 165 bp 601 DNA) (Xenopus); assay: FRET or BRET; HIFI-FRET Job plot (continuous variation); Oregon Green 488-PZP donor and Atto647N-NCP165 acceptor; total concentration of reactants constant at 1 μM, 50 nM steps
[5] = biological target: NCP165, mononucleosome assembled with unlabeled Xenopus octamer on 165 bp 601 DNA (Xenopus); assay: AUC; sedimentation velocity; unlabeled NCP165 incubated with increasing molar ratios of PZP overnight at 4°C; 20 mM Tris 7.5, 50 mM NaCl, 2 mM arginine; 20°C, 40 000 rpm; free components also run alone
BRPF1 PZP domain [6] = assay: FRET; details: with LexA fixed at its S1/2 (2 uM); HI-FI FRET: 25 mM Tris pH 7.5, 200 mM NaCl, 0.01% NP40 and CHAPS; EMSA: 25 mM Tris-HCl pH 7.5, 150 mM NaCl, 5 mM DTT, +/-10% glycerol, RT 30 min; NMR: 25 mM …
LexA = assay: FRET; details: LexA titration; S1/2 of nucleosome unwrapping, 75 mM NaCl; HI-FI FRET: 25 mM Tris pH 7.5, 200 mM NaCl, 0.01% NP40 and CHAPS; EMSA: 25 mM Tris-HCl pH 7.5, 150 mM NaCl, 5 mM DTT, +/-10% glycerol, RT 30 min; NMR: 25 mM …

Substance: NCP147 (FRET)
Kd (BRPF1 PZP domain [1]; apparent, curve did not plateau): > 1000 nM

Substance: BRPF1 PZP PZP (from UniProt P55201)
Kd [2]: 12000 nM

Kd [3]: > 1000 nM
Substance: Atto647N-labeled NCP147 (Xenopus octamer labeled at H4E63C, 147 bp 601 DNA) (complex)

Kd [3]: 273 nM
Substance: Atto647N-labeled NCP165 (Xenopus octamer labeled at H4E63C, 165 bp 601 DNA) (complex)

Substance: NCP165
Kd (BRPF1 PZP domain [1]; apparent Kd): 273 nM

stoichiometry N [4]: 1.8
Substance: Oregon Green 488-labeled BRPF1 PZP domain (from UniProt P55201 267-454) (domain or fragment)

stoichiometry N [5]: 2
Substance: BRPF1 PZP domain (amino acids 267–454) (from UniProt P55201 267-454) (domain or fragment)

Substance: 601L Cy3-Cy5 NCP with LexA site
K half (BRPF1 PZP domain [6]): 4 µM | K half (LexA): 2000 nM
